Target: NPM1 (UniProt P06748)
Assay: Co-IP of Flag-MST4 with HA-NPM1
Conditions: reference: Flag-MST4 wild type; sites T178

Substance: MST4 (from UniProt Q9P289) Flag-MST4 T178A
- binding against the reference: weaker

Reference: article PMC12436196
